# Measurements as given in the supplement of paper PMC12855868.
# B1: library; numbered along this chain (parent)
# chain: MAAAGGARLLRAASAVLGGPAGRWLHHAGSRAGSSGLLRNRGPGGSAEASRSLSVSARARSSSEDKITVHFINRDGETLTTKGKVGDSLLDVVVENNLDIDGFGACEGTLACSTCHLIFEDHIYEKLDAITDEENDMLDLAYGLTDRSRLGCQICLTKSMDNMTVRVPETVADARQSIDVGKTS
# Variants of: B1
# Experiment: scaled log2 fold change in cell abundance, elesclomol vs control (0 = silent mean, 1 = nonsense mean) (scaled log2 ratio); higher = higher viability under elesclomol (loss of FDX1 cuproptosis function)
# Details: glucose 10 mM
# [1] = with ABC1 FDX1 KO, elesclomol 5 nM, 14 days
# [2] = with HEK293T FDX1 KO, elesclomol 40 nM, 11 days
# 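Further: variant abundance is its share of total variant reads in each endpoint sample, from next-generation sequencing of the integrated ORF PCR-amplified out of genomic DNA.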
Variant,scaled log2 fold change [1],scaled log2 fold change [2]
D121V,0.222,0.458
A105G,-0.0984,-0.152
T81H,0.282,-0.297
G108Y,1,1.1
G108T,1.01,0.358
L140T,-0.682,-0.194
L140C,-0.0723,-0.467
A129Y,-0.538,
R51F,0.269,0.664
R51D,-0.0949,-0.181
R51C,0.374,-0.169
H27W,-0.436,0.305
H27L,0.396,
A57C,0.479,
A57L,-0.263,0.149
A57E,-0.0705,-0.933
H26R,-0.169,-0.571
H26S,0.241,
R23N,0.598,-0.335
G86V,0.654,0.478
T109N,-0.076,0.456

Variant,scaled log2 fold change [1],scaled log2 fold change [2]
T109K,-0.296,-0.481
L9T,0.431,
T170Q,0.241,-0.893
T170W,-0.0505,0.993
T170R,-0.159,
V171M,0.452,0.0122
R58D,-0.139,-0.303
Q153N,-0.0628,0.314
N97I,0.125,-0.93
N97L,-0.931,
N97A,0.142,0.975
G33E,0.197,-0.759
G33P,-0.0501,0.139
A21R,-0.644,-0.0217
I178Y,-1.49,0.141
D161F,0.305,0.236
D161M,-0.0698,-0.0785
D161Q,0.0687,
D161H,-0.161,-0.464
D65E,-0.139,0.087
V55P,-0.481,1.06

Variant,scaled log2 fold change [1],scaled log2 fold change [2]
V55Q,0.177,-0.526
G42P,0.28,-0.219
G42M,0.0351,0.622
R147E,0.159,-0.255
R147V,0.177,0.544
L150F,0.244,-0.211
L150P,1.09,0.82
G76R,-0.0307,
A7F,0.0991,0.612
A7S,0.0146,0.154
K66C,-0.0989,-0.0245
K66N,-0.167,0.199
K66G,0.301,0.245
L110Y,0.609,0.0828
L110H,0.0622,0.156
D87C,-0.824,-0.252
D87T,-0.14,
D87V,-0.164,-0.704
V93M,0.416,0.244
